In the supplement of paper PMC9112550, “Optimization of the antimicrobial peptide Bac7 by deep mutational scanning” (BMC Biology, 2022):

System: Escherichia coli TOP10
Assay: shrunken log2 fold change of peptide-encoding DNA abundance (4.5 h post-induction vs induction); higher = less antimicrobial activity (less host growth inhibition)
Conditions: time post-induction: 4.5 h; library: site-saturation at positions 5, 18, 19, 20
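Further: peptides expressed intracellularly from a pBAD plasmid library in pooled LB shake-flask culture, induced with 0.3% L-arabinose, DNA abundance read by NGS, three biological replicates, DESeq2 with apeglm shrinkage.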

RRIRPRPPRLPRPRPRPCYKPRP
shrunken log2 fold change: -1.32

RRIRPRPPRLPRPRPRPDALPRP
shrunken log2 fold change: 0.0315

RRIRPRPPRLPRPRPRPDCEPRP
shrunken log2 fold change: 0.0556

RRIRPRPPRLPRPRPRPDCHPRP
shrunken log2 fold change: -0.204

RRIRPRPPRLPRPRPRPDCPPRP
shrunken log2 fold change: -0.0368

RRIRPRPPRLPRPRPRPDCWPRP
shrunken log2 fold change: 0.543

RRIRPRPPRLPRPRPRPDDKPRP
shrunken log2 fold change: -0.0729

RRIRPRPPRLPRPRPRPDECPRP
shrunken log2 fold change: -0.041

RRIRPRPPRLPRPRPRPDEKPRP
shrunken log2 fold change: -0.0591

RRIRPRPPRLPRPRPRPDFCPRP
shrunken log2 fold change: -0.0633

RRIRPRPPRLPRPRPRPDFDPRP
shrunken log2 fold change: -0.03

RRIRPRPPRLPRPRPRPDFPPRP
shrunken log2 fold change: -0.0174

RRIRPRPPRLPRPRPRPDGRPRP
shrunken log2 fold change: 0.101

RRIRPRPPRLPRPRPRPDHCPRP
shrunken log2 fold change: -0.199

RRIRPRPPRLPRPRPRPDHGPRP
shrunken log2 fold change: -0.0198

RRIRPRPPRLPRPRPRPDHHPRP
shrunken log2 fold change: -0.543

RRIRPRPPRLPRPRPRPDHKPRP
shrunken log2 fold change: -0.334

RRIRPRPPRLPRPRPRPDHSPRP
shrunken log2 fold change: -0.082

RRIRPRPPRLPRPRPRPDHTPRP
shrunken log2 fold change: 0.0191

RRIRPRPPRLPRPRPRPDIKPRP
shrunken log2 fold change: -0.317

RRIRPRPPRLPRPRPRPDITPRP
shrunken log2 fold change: -0.783

RRIRPRPPRLPRPRPRPDKQPRP
shrunken log2 fold change: 0.0524

RRIRPRPPRLPRPRPRPDLNPRP
shrunken log2 fold change: 0.168

RRIRPRPPRLPRPRPRPDMMPRP
shrunken log2 fold change: -0.0321

RRIRPRPPRLPRPRPRPDNEPRP
shrunken log2 fold change: -0.0784

RRIRPRPPRLPRPRPRPDNMPRP
shrunken log2 fold change: -0.337

RRIRPRPPRLPRPRPRPDNSPRP
shrunken log2 fold change: -0.228

RRIRPRPPRLPRPRPRPDQLPRP
shrunken log2 fold change: -0.0341

RRIRPRPPRLPRPRPRPDQMPRP
shrunken log2 fold change: 0.196

RRIRPRPPRLPRPRPRPDQQPRP
shrunken log2 fold change: -0.0644

RRIRPRPPRLPRPRPRPDQRPRP
shrunken log2 fold change: 0.015

RRIRPRPPRLPRPRPRPDTVPRP
shrunken log2 fold change: -0.207

RRIRPRPPRLPRPRPRPDVIPRP
shrunken log2 fold change: -0.0251

RRIRPRPPRLPRPRPRPDVQPRP
shrunken log2 fold change: 0.234

RRIRPRPPRLPRPRPRPDWSPRP
shrunken log2 fold change: -0.195

RRIRPRPPRLPRPRPRPDWTPRP
shrunken log2 fold change: -0.063

RRIRPRPPRLPRPRPRPDYAPRP
shrunken log2 fold change: 0.0585

RRIRPRPPRLPRPRPRPDYNPRP
shrunken log2 fold change: -0.553

RRIRPRPPRLPRPRPRPECPPRP
shrunken log2 fold change: 0.353

RRIRPRPPRLPRPRPRPEDEPRP
shrunken log2 fold change: 0.242

RRIRPRPPRLPRPRPRPEEPPRP
shrunken log2 fold change: 0.437

RRIRPRPPRLPRPRPRPEHEPRP
shrunken log2 fold change: 0.0185

RRIRPRPPRLPRPRPRPEHHPRP
shrunken log2 fold change: -0.0616

RRIRPRPPRLPRPRPRPEHPPRP
shrunken log2 fold change: 0.231

RRIRPRPPRLPRPRPRPEIAPRP
shrunken log2 fold change: 0.189

RRIRPRPPRLPRPRPRPEIDPRP
shrunken log2 fold change: -0.0829

RRIRPRPPRLPRPRPRPEILPRP
shrunken log2 fold change: 0.0928

RRIRPRPPRLPRPRPRPEIPPRP
shrunken log2 fold change: 0.0702

RRIRPRPPRLPRPRPRPEKGPRP
shrunken log2 fold change: 0.321

RRIRPRPPRLPRPRPRPEMAPRP
shrunken log2 fold change: 0.0664

RRIRPRPPRLPRPRPRPEMCPRP
shrunken log2 fold change: 0.291

RRIRPRPPRLPRPRPRPEMFPRP
shrunken log2 fold change: -0.112

RRIRPRPPRLPRPRPRPEMNPRP
shrunken log2 fold change: -0.381

RRIRPRPPRLPRPRPRPEMPPRP
shrunken log2 fold change: 0.762

RRIRPRPPRLPRPRPRPEMVPRP
shrunken log2 fold change: 0.191

RRIRPRPPRLPRPRPRPEPTPRP
shrunken log2 fold change: 0.416

RRIRPRPPRLPRPRPRPEQGPRP
shrunken log2 fold change: -0.178

RRIRPRPPRLPRPRPRPEQQPRP
shrunken log2 fold change: -0.0146

RRIRPRPPRLPRPRPRPEREPRP
shrunken log2 fold change: 0.49

RRIRPRPPRLPRPRPRPERSPRP
shrunken log2 fold change: 0.0565

RRIRPRPPRLPRPRPRPESRPRP
shrunken log2 fold change: 0.11

RRIRPRPPRLPRPRPRPETCPRP
shrunken log2 fold change: 0.787

RRIRPRPPRLPRPRPRPETEPRP
shrunken log2 fold change: 0.344

RRIRPRPPRLPRPRPRPEVDPRP
shrunken log2 fold change: 0.155

RRIRPRPPRLPRPRPRPEVEPRP
shrunken log2 fold change: -0.00972

RRIRPRPPRLPRPRPRPEVKPRP
shrunken log2 fold change: -0.00169

RRIRPRPPRLPRPRPRPEVNPRP
shrunken log2 fold change: 0.188

RRIRPRPPRLPRPRPRPEWEPRP
shrunken log2 fold change: 0.304

RRIRPRPPRLPRPRPRPEWYPRP
shrunken log2 fold change: 0.203

RRIRPRPPRLPRPRPRPFAEPRP
shrunken log2 fold change: 0.0204

RRIRPRPPRLPRPRPRPFALPRP
shrunken log2 fold change: 0.238

RRIRPRPPRLPRPRPRPFCHPRP
shrunken log2 fold change: -0.00162

RRIRPRPPRLPRPRPRPFCLPRP
shrunken log2 fold change: -0.0969

RRIRPRPPRLPRPRPRPFCPPRP
shrunken log2 fold change: -0.345

RRIRPRPPRLPRPRPRPFCTPRP
shrunken log2 fold change: -0.00789

RRIRPRPPRLPRPRPRPFGAPRP
shrunken log2 fold change: -0.00494

RRIRPRPPRLPRPRPRPFGHPRP
shrunken log2 fold change: -0.0335

RRIRPRPPRLPRPRPRPFGSPRP
shrunken log2 fold change: 0.0959

RRIRPRPPRLPRPRPRPFGTPRP
shrunken log2 fold change: -0.444

RRIRPRPPRLPRPRPRPFHGPRP
shrunken log2 fold change: -0.252

RRIRPRPPRLPRPRPRPFHMPRP
shrunken log2 fold change: -0.301

RRIRPRPPRLPRPRPRPFIGPRP
shrunken log2 fold change: 0.108

RRIRPRPPRLPRPRPRPFIIPRP
shrunken log2 fold change: -0.854

RRIRPRPPRLPRPRPRPFKQPRP
shrunken log2 fold change: -0.258

RRIRPRPPRLPRPRPRPFLIPRP
shrunken log2 fold change: -0.459

RRIRPRPPRLPRPRPRPFLRPRP
shrunken log2 fold change: -0.327

RRIRPRPPRLPRPRPRPFMCPRP
shrunken log2 fold change: -0.164

RRIRPRPPRLPRPRPRPFMTPRP
shrunken log2 fold change: -0.511

RRIRPRPPRLPRPRPRPFPLPRP
shrunken log2 fold change: -0.332

RRIRPRPPRLPRPRPRPFPQPRP
shrunken log2 fold change: 0.54

RRIRPRPPRLPRPRPRPFQVPRP
shrunken log2 fold change: -0.0122

RRIRPRPPRLPRPRPRPFRKPRP
shrunken log2 fold change: -0.0819

RRIRPRPPRLPRPRPRPFRMPRP
shrunken log2 fold change: -0.134

RRIRPRPPRLPRPRPRPFRPPRP
shrunken log2 fold change: -0.0197

RRIRPRPPRLPRPRPRPFRVPRP
shrunken log2 fold change: 0.0659

RRIRPRPPRLPRPRPRPFSGPRP
shrunken log2 fold change: -0.478

RRIRPRPPRLPRPRPRPFTVPRP
shrunken log2 fold change: 0.0237

RRIRPRPPRLPRPRPRPFVLPRP
shrunken log2 fold change: -0.352

RRIRPRPPRLPRPRPRPFYCPRP
shrunken log2 fold change: -0.212

RRIRPRPPRLPRPRPRPFYDPRP
shrunken log2 fold change: -0.138

RRIRPRPPRLPRPRPRPFYGPRP
shrunken log2 fold change: -0.142

RRIRPRPPRLPRPRPRPGACPRP
shrunken log2 fold change: 0.35

RRIRPRPPRLPRPRPRPGCKPRP
shrunken log2 fold change: 0.368

RRIRPRPPRLPRPRPRPGDRPRP
shrunken log2 fold change: 0.0494

RRIRPRPPRLPRPRPRPGECPRP
shrunken log2 fold change: 0.739

RRIRPRPPRLPRPRPRPGEYPRP
shrunken log2 fold change: -0.207

RRIRPRPPRLPRPRPRPGGKPRP
shrunken log2 fold change: 0.12

RRIRPRPPRLPRPRPRPGGTPRP
shrunken log2 fold change: 0.269

RRIRPRPPRLPRPRPRPGIGPRP
shrunken log2 fold change: 0.208
